Results reported in patent US6673354B2, “Compositions and methods for treating papillomavirus-infected cells” (priority 1998, dated 2004).

Experiments:
[1] = target: T1, EE-EIC (epitope tagged carboxy terminal domain of HPV16 E1) (human papillomavirus type 16, UniProt P03114 424-649); assay: in vitro E1-E2 competition binding assay with EE-EIC, 10-40 µM peptide, FIG. 14
T1 construct: range 424-649; limits uncertain; also called HPV-16 EE-EIC; EE-E1C
T1 sequence: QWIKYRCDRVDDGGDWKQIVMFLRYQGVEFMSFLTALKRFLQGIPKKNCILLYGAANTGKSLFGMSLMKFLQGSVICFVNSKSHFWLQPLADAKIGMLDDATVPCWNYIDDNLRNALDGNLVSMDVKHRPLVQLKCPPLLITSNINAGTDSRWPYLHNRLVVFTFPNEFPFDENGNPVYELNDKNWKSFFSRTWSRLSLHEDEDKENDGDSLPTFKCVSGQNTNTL

[2] = target: T2, HPV11 EE-E1 (epitope tagged HPV11 E1) (human papillomavirus type 11, UniProt P04014 1-649); assay: co-immunoprecipitation with anti-EE antibody, Western blot for E2
T2 sequence: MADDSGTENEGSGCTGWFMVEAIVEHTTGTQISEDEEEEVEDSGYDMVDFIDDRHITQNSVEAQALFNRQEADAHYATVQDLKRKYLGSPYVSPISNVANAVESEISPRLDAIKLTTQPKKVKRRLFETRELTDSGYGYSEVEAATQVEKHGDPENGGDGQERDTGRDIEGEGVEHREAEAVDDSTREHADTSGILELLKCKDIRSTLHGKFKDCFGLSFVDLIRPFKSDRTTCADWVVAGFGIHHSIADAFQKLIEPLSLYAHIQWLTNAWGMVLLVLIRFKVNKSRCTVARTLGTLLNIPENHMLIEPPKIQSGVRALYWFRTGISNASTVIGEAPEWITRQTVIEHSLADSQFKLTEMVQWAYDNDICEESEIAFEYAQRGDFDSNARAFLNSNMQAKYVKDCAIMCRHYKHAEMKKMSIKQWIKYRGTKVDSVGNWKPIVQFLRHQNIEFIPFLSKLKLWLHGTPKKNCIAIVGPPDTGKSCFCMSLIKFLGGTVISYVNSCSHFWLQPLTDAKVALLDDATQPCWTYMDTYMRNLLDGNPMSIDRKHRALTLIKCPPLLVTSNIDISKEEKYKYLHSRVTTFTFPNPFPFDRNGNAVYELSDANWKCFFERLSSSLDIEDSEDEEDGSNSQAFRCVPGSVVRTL

[3] = target: T3, epitope tagged full length HPV16 E1 (EE16-E1) (human papillomavirus type 16, UniProt P03114 1-649); assay: inhibition of HPV16 E1-E2 co-immunoprecipitation by peptide; competitor HPV16 E2
T3 construct: range 1-649; also called EE-E1; HPV16 EE-E1
T3 sequence: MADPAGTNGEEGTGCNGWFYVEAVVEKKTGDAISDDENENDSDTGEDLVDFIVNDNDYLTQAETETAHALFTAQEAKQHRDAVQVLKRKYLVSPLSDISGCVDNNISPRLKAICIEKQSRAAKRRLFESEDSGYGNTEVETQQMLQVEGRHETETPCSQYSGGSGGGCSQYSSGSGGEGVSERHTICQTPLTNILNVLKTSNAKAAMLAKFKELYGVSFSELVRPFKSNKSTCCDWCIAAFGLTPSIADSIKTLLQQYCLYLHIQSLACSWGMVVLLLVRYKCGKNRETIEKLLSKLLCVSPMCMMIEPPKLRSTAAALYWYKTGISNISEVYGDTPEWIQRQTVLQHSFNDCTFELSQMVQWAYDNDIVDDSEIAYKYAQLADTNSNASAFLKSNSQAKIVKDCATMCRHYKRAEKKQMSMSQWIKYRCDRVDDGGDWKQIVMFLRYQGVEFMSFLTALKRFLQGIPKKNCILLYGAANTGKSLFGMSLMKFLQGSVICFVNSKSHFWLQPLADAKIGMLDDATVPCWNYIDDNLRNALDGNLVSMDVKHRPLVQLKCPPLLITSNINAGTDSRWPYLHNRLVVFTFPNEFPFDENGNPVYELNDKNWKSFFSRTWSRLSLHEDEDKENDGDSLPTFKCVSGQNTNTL

ERQIKIWFQNRRMKWKKGGWKHMRLECAIYYKAR (also called Antennapedia fusion peptide) [Ant-WP (Drosophila Antennapedia aa 42-58, Gly-Gly spacer, WP15)]: binds [1].

B1: HPV16 E2 E39A mutant (other)
chain: METLCQRLNVCQDKILTHYENDSTDLRDHIDYWKHMRLACAIYYKAREMGFKHINHQVVPTLAVSKNKALQAIELQLTLETIYNSQYSNEKWTLQDVSLEVYLTAPTGCIKKHGYTVEVQFDGDICNTMHYTNWTHIYICEEASVTVVEGQVDYYGLYYVHEGIRTYFVQFKDDAEKYSKNKVWEVHAGGQVILCPTSVFSSNEVSSPEIIRQHLANHPAATHTKAVALGTEETQTTIQRPRSEPDTGNPCHTTKLLHRDSVDSAPILTAFNSSHKGRINCNSNTTPIVHLKGDANTLKCLRYRFKKHCTLYTAVSSTWHWTGHNVKHKSAIVTLTYDSEWQRDQFLSQVKIPKTITVSTGFMSI
notes: also called E39A replication defective HPV16 E2 mutant
B1: no binding [2].

WKHMRLECAIYYKAR (also called 15-mer; wild-type peptide) [E2N-WP15 (peptide of HPV16 E2 residues 33-47)] gave an IC50 [3] of 7.5 µM.

HIDYWKHMRLECAIYYKAREMGF (also called 23-mer) [E2N-WP23 (peptide of HPV16 E2 amino acids 29-51)] showed an IC50 [3] of 5 µM.
